Measured values published in article PMC7822688, “W196 and the β-Hairpin Motif Modulate the Redox Switch of Conformation and the Biomolecular Interaction Network of the Apoptosis-Inducing Factor” (Oxidative Medicine and Cellular Longevity, 2021).
Several values for one entry are separate records, joined by “and”; a condition that tells them apart may be missing. Equal values may be shown once. Entries after “also recorded” stand apart in the source; their conditions may differ. Read-outs that look alike come from different tables or passages of the source.

Legend:
[1] = Reactivity of the CTC towards molecular oxygen (CTC half-life); type: biochemical; details: 25°C, air saturated 50 mM potassium phosphate, pH 7.4
Method: The reactivity of the CTC towards molecular oxygen was monitored by full reduction of hAIF∆1-101 samples with NADH (1.5-fold the concentration of the protein) in 50 mM phosphate buffer, pH 7.4, and following their reoxidation in a Cary 100 spectrophotometer (Agilent, Santa Clara, CA). Absorption spectra were recorded at 25 °C until full oxidation of the flavin cofactor was achieved. For each time, the percent remaining of CTC versus reoxidation by molecular oxygen was estimated as ΔAt/ΔAmax, where ΔAmax is the difference between the minimum and the maximum absorbance at 700 nm, and ΔAt is the difference of each value at 700nm minus the minimum absorbance at 700 nm. The CTC half-life is the time at which 50% of CTC still remains.

[2] = target: T1, CHCHD4 (Homo sapiens, UniProt Q8N4Q1); experiment: ITC binary interaction with CHCHD4; type: binding; details: for Kd / ΔG / ΔH / -TΔS: 25°C, pH 7.4
T1 construct: His6 (N); made in house; host or cells: E. coli C41 (DE3)
T1 sequence (Q8N4Q1 1-142): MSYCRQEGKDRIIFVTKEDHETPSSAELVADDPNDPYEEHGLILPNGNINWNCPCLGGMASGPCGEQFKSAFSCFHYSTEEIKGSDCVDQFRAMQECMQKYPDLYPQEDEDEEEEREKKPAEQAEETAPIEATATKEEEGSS
Method: (§1) ITC assays were carried out using an Auto-iTC200 (MicroCal, Malvern-Panalytical, Malvern, UK) thermostated at 25 °C. Typically, […] protein partner and dsDNA samples—prepared as described below—were used to titrate ~10 μM hAIF∆1-101 variants. All solutions were degassed at 15°C for 1 min before each assay. A sequence of 2 μL injections of titrant solution every 150 s was programmed, and the stirring speed was set to 750 rpm. The association constant (Ka), the enthalpy of binding (ΔH), and the binding stoichiometry (N) were estimated through nonlinear least-squares regression of the experimental data employing a single-ligand binding site model implemented in Origin 7.0 (OriginLab, Northampton, MA). The dissociation constant (Kd), the free energy change (ΔG), and the entropy change (ΔS) were obtained from basic thermodynamic relationships.

[3] = Steady-state DCPIP-dependent diaphorase (NADH oxidase) activity; type: biochemical; details: for K m ^NADH / k cat: steady-state, NADH donor, 95 μM DCPIP acceptor, 25°C, 50 mM potassium phosphate, pH 7.4 (table footnote); for k cat: n = 3, mean ± SD
From the text: […] When saturation profiles on the pyridine nucleotide concentration were observed, kinetic constants were estimated by fitting initial reaction rates at different coenzyme concentrations to the Michaelis-Menten equation: (2) ν/e=kcat NADH/KmNADH+NADH,ν/e=kcat/KmNADHNADH/1+kcat/KmNADHNADH/kcat, where v stands for the initial velocity, e is the enzyme concentration, Km^NADH is the Michaelis constant for the enzyme-NADH complex, kcat is the turnover number of the enzyme, and kcat/Km^NADH is the enzyme catalytic efficiency.

[4] = for T m CTC ^FAD − Tm^FAD: CTC state relative to oxidized state of the same variant; for ΔTm^FAD: variant relative to WT; for T m ^FAD: ~2 μM protein, 50 mM potassium phosphate; for ΔTm CTC^FAD: CTC state, variant relative to WT CTC
Method: Thermal denaturation curves were followed by changes in the FAD fluorescence emission upon its release from the protein by sample excitation at 450 nm. Curves were monitored from 10 °C to 90 °C with scan rates of 1°C/min, both in the absence and presence of a 100-fold excess of NADH. The curves for each variant were roughly normalized to values between 0 and 1 and globally fitted to a two-step process describing a single transition unfolding equilibrium (native (N)↔unfolded (U)) by using the following equation [23]: (1) Sobs=SN+mNT+SU+mUTe^−ΔG/RT/1+e^−ΔG/RT, in which Sobs is the measured protein signal at a given temperature (T). SN and SU are intercept at 0 K with the y-axis of the linear extrapolation for the native and unfolded pre- and posttransition regions, respectively, while mN and mU are the corresponding slopes. The stabilization Gibbs energy depends on temperature according to ΔG = ΔH(1 − 1/Tm) + ΔCP(T − Tm − Tln(T/Tm)), where ΔH is the unfolding enthalpy, Tm is the midtransition temperature, ΔCP is the unfolding heat capacity change, and R is the ideal gas constant.

[5] = target: T2, CypA (Homo sapiens, UniProt P62937); experiment: ITC binary interaction with CypA; type: binding; details: oxidized hAIF∆1-101 titrated with CypA, 25°C, pH 7.4
T2 construct: His6 (N); made in house; host or cells: E. coli C41 (DE3)
T2 sequence (P62937 whole entry): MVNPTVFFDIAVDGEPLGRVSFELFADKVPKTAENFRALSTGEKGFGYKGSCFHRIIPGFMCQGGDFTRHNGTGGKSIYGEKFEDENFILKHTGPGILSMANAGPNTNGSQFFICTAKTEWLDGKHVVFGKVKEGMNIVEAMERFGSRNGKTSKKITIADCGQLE
Method: as §1

[6] = Stopped-flow CTC formation on mixing photoreduced hAIF∆1-101 with NAD+; type: biochemical; details: for k CTC: hAIF∆1-101phrd variants mixed with NAD+; for k CTC / k CTC/Kd^NAD+ / Kd: anaerobic, 25°C, pH 7.4; for k CTC/Kd^NAD+: hAIF∆1-101phrd variants; for Kd: transient hAIF∆1-101phrd:NAD+ complex, read-out: K d ^NAD+
Method: Stopped-flow spectrophotometry was also used to evaluate the rate constants of CTC formation when mixing photoreduced hAIF∆1-101 (hAIF∆1-101phrd) with increasing concentrations of NAD^+ (0.125-5 mM) under anaerobic conditions. hAIF∆1-101phrd samples were obtained by photoreduction in the presence of 5 μM methyl viologen, 3 μM 5-deazariboflavin, and 20 mM EDTA. The assays were performed at 25 °C in 50 mM potassium phosphate, pH 7.4, under anaerobic conditions (obtained by several cycles of vacuum application and bubbling with O2 free argon). Data were global fitted to a single step model (A→B), and kobs were determined at the different NAD^+ concentrations assayed. These values were then fitted to the equation that describes the formation of a transient hAIF∆1-101phrd:NAD^+ complex prior to the CTC stabilization: (4) kobs=kCTCNAD^+/KdNAD++NAD^+, in which kCTC is the limiting rate constant for the rearrangement of the encounter complex to form the CTC, and Kd^NAD+ is the dissociation constant for the mentioned transient encounter complex.

[7] = Stopped-flow reduction of hAIF∆1-101ox by NADH (hydride transfer); type: biochemical; details: for k HT/Kd^NADH / k HT / Kd: pre-steady-state, 25°C, pH 7.4; for k HT: hydride transfer from NADH to FAD, aerobic, 50 mM potassium phosphate; for Kd: transient hAIF∆1-101ox:NADH complex, read-out: K d ^NADH
Method: A SX18.MV stopped-flow spectrophotometer (Applied Photophysics Ltd., Surrey, UK), interfaced with the ProData-SX software and a photodiode array detector, was used to investigate the fast kinetic reduction of the hAIF variants by the NADH coenzyme. Samples of ~10 μM hAIF∆1-101ox were mixed with increasing concentrations of NADH (0.03-10 mM) under aerobic conditions in 50 mM potassium phosphate, pH 7.4, at 25 °C. The enzyme and NADH concentrations are the final ones obtained after mixing equal volumes of substrate and enzyme. Observed rate constants for the hydride transfer (HT) event (kobs) were calculated by global analysis and numerical integration methods (simultaneously using all spectral data in the 400-800 nm region along time evolution). A single-step model (A→B) best fitted to describe the overall reaction at all NADH concentrations assayed. Averaged kobs values at each NADH concentration were then fitted to the equation that describes the formation of an enzyme:substrate complex prior to the HT event: (3) kobs=kHTNADH/KdNADH+NADH+krev, where kHT is the limiting rate constant for HT from the pyridine nucleotide coenzyme to the FAD cofactor of hAIF, Kd^NADH is the dissociation constant of the transient hAIF∆1-101ox:NADH complex, and krev is the reaction constant for a potential overall reverse process.

[8] = target: dsDNA; experiment: ITC binary interaction with dsDNA; type: binding; details: for Kd for DNA higher than WT: hAIFΔ1−101ox, binary complexes; for Kd: oxidized hAIF∆1-101 titrated with 15-bp dsDNA, 25°C, pH 7.4
Method: as §1
Since hAIF binds DNA unspecifically, a 0.5 mM dsDNA sample was prepared from 1 mM solutions of HPLC-purified forward and a reverse complementary 15-bp oligonucleotides (5′- GGT TAG TTA TGC GCG -3′; randomly designed) synthetized by Integrated DNA Technologies. The pair of oligonucleotides was mixed at an equimolar ratio and annealed by heating 1 min at 99°C and performing a 3 h temperature scanning from 95 to 25°C, decreasing 1°C each 3 min. 0.5 mM dsDNA stock solutions were obtained.

[9] = CTC form (premixed with NADH 1:100) titrated with CHCHD4, ITC, read-out: K d
[10] = CTC form titrated with CHCHD4, ITC
[11] = oxidized hAIF∆1-101 titrated with CHCHD4, ITC
[12] = steady-state DCPIP diaphorase reaction
[13] = CTC hAIF∆1-101rd:NAD^+, 100-fold excess NADH
[14] = CTC hAIF∆1-101rd:NAD^+, 100-fold excess NADH, pH 7.4, ionic strength 150 mM
[15] = hAIF∆1-101ox, pH 7.4, ionic strength 150 mM

| Substance | CTC half-life versus reoxidation by O2 [1] [min] | Kd [2, 9] [µM] | ΔG [2, 10] [kJ/mol] | ΔH [2, 10] [kJ/mol] | increase in turnover rate relative to WT [3, 12] | K m ^NADH [3] [µM] | k cat [3] [s⁻¹] | ΔH (unfolding enthalpy) [4, 13] [kJ/mol] | T m CTC ^FAD [4, 14] [K] | T m CTC ^FAD − Tm^FAD [4] [K] | ΔH (unfolding enthalpy) [4, 15] [kJ/mol] | ΔTm^FAD ([4]; hAIF∆1-101ox) [K] | T m ^FAD [4, 15] [K] | k CTC [6] [s⁻¹] | k CTC/Kd^NAD+ [6] [M⁻¹ s⁻¹] | decrease in Kd^NAD+ relative to WT ([6]; hAIF∆1-101phrd with NAD+) | Kd [6] [µM] | k HT/Kd^NADH [7] [M⁻¹ s⁻¹] | k HT [7] [s⁻¹] | Kd [7] [µM] | further results |
| --- | --- | --- | --- | --- | --- | --- | --- | --- | --- | --- | --- | --- | --- | --- | --- | --- | --- | --- | --- | --- | --- |
| W196A: W196A site-directed mutant of hAIF∆1-101; ox = oxidized, CTC = charge transfer complex with NAD+ | 62 | 0.5 | -34.7 | -24.7 | ~ 5 fold | 25 ± 4 | 4.3 ± 0.2 | 711 ± 17 | 326 ± 1 | 0 | 431 ± 13 | −11 ± 2 | 326 ± 1 | 30 ± 1 | 76000 ± 10000 | ~ 5 fold | 394 ± 50 | 117000 ± 5300 | 126 ± 1 | 1070 ± 40 | Kd ([2]; oxidized hAIF∆1-101 titrated with CHCHD4, ITC, 50 mM potassium phosphate, listed as W196Aox, read-out: K d): ~0.4 µM and 0.4 µM; -TΔS [2, 11]: -75.3 kJ/mol; ΔG [2, 11]: -35.1 kJ/mol; ΔH [2, 11]: 40.2 kJ/mol; -TΔS [5]: -146 kJ/mol; ΔG [5]: -31.8 kJ/mol; ΔH [5]: 114 kJ/mol; higher affinity for the NADH substrate relative to WT ([7]; stopped-flow, NADH): ~ 5 fold; Kd for DNA higher than WT [8]: ~ 4 fold; Kd [8]: 5.8 µM |
| W196L: W196L site-directed mutant of hAIF∆1-101 | 32 | – | – | – | ~ 3 fold | 187 ± 18 | 2.8 ± 0.1 | 665 ± 17 | 324 ± 1 | −2 ± 2 | 494 ± 13 | −11 ± 2 | 326 ± 1 | 29 ± 2 | 67000 ± 18000 | ~ 5 fold | 433 ± 11 | 21000 ± 3000 | 36 ± 1 | 1720 ± 210 | decrease in Km^NADH relative to WT [3, 12]: ~ 3 fold; efficiency oxidizing NADH relative to WT [3, 12]: ~ 8 times; ΔTm CTC^FAD [4]: 0 K |
| W196Y: W196Y site-directed mutant of hAIF∆1-101; ox = oxidized, CTC = charge transfer complex with NAD+ | 42 | 2.1 | -31.4 | -34.3 | ~ 3 fold | 505 ± 35 | 2.7 ± 0.1 | 699 ± 17 | 323 ± 1 | −6 ± 2 | 515 ± 13 | −8 ± 2 | 329 ± 1 | 16 ± 1 | 87000 ± 14000 | ~ 11 fold | 183 ± 27 | 4000 ± 800 | 12 ± 1 | 2870 ± 320 | -TΔS [2, 10]: 2.9 kJ/mol; Kd for CHCHD4 higher relative to WT CTC ([2]; CTC form, ITC): ~ 10 fold; Kd ([2]; oxidized hAIF∆1-101 titrated with CHCHD4, ITC, 50 mM potassium phosphate, listed as W196Yox): heat exchange was not observed; also recorded: No detected binding; efficiency oxidizing NADH relative to WT [3, 12]: ~ 3 times; ΔTm CTC^FAD [4]: −1 ± 2 K; -TΔS [5]: -104 kJ/mol; ΔG [5]: -33.1 kJ/mol; ΔH [5]: 71.1 kJ/mol; decrease in kCTC relative to WT ([6]; hAIF∆1-101phrd with NAD+): less than 3 fold; efficiency as hydride acceptor from NADH relative to WT ([7]; stopped-flow, NADH): ~ 12 fold; Kd for DNA higher than WT [8]: ~ 4 fold; Kd [8]: 6.9 µM |
